One series is described as follows: Water solubility. In kind it is physicochemical.
A short description of another series: Oxidation stability. The format is physicochemical. The conditions noted are these: base compound is the major oxidation product.
A further series in a line: Light stability. In kind it is physicochemical. Conditions: forms the base compound and other degradants.

In the case of `COCCOCCOC(=O)OC(C)OC(=O)c1ccc(NC(=O)[C@@H]2N[C@@H](CC(C)(C)C)[C@](C#N)(c3ccc(Cl)cc3F)[C@H]2c2cccc(Cl)c2F)c(OC)c1` (stereo partly drawn) [Compound A, 4-{[(2R, 3S, 5S)-4-(4-chloro-2-fluoro-phenyl)-3-(3-chloro-2-fluoro-phenyl)-4-cyano-5-(2,2-dimethyl-propyl)-pyrrolidine-2-carbonyl]-amino}-3-methoxy-benzoic Acid 1-[2-(2-methoxy-ethoxy)-ethoxycarbonyloxy]-ethyl ester], in the series “Water solubility”, the solubility in water result is listed as “relatively more soluble in water”. Moreover, the “hydrolysis kinetics in aqueous solutions” value (aqueous solutions, base compound is the major degradation product) is given as “first-order kinetics”. For the same compound, the “most stable pH range” value (from stability perspective) is given as 3-5 pH. Further, the sensitivity to oxidation result in “Oxidation stability” was “vulnerable to oxidation”. For the same compound, the sensitivity to light entry in the series “Light stability” is recorded as “light sensitive”.

With `COc1cc(C(=O)O)ccc1NC(=O)[C@@H]1N[C@@H](CC(C)(C)C)[C@](C#N)(c2ccc(Cl)cc2F)[C@H]1c1cccc(Cl)c1F` [base compound, 4-{[(2R,3S,4R,5S)-3-(3-chloro-2-fluoro-phenyl)-4-(4-chloro-2-fluoro-phenyl)-4-cyano-5-(2,2-dimethyl-propyl)-pyrrolidine-2-carbonyl]-amino}-3-methoxy-benzoic acid], the solubility in water result in “Water solubility” was “practically water insoluble”.

For the origin of these results see US20160136280A1, “STABLE INTRAVENOUS FORMULATION” (HOFFMANN-LA ROCHE INC., priority 2013, published 2016).
